Measured values published in patent US20190135928A1 (Bristol-Myers Squibb, published 2019).
Positions count from the first letter of the chain named.

Key:
Test in all cases: cell-based or functional assay
[1] = target: T1, human TL1A (in-house) (human, UniProt O95150 57-251, limits assumed)
T1 sequence: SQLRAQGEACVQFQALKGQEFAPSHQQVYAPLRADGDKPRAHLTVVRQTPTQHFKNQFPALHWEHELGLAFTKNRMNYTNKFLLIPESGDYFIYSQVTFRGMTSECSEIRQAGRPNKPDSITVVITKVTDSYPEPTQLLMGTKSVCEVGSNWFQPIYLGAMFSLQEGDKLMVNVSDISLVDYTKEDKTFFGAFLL

[2] = target: T1, human TL1A (in-house); remark: listed apart in the source
[3] = target: T2, cynomolgus TL1A (in-house) (cynomolgus monkey, UniProt G7PRK8 57-251)
T2 sequence: T1 sequence with F13L, A15D, F54L, I93V

[4] = target: T3, TL1A expressed on transfected CHO cells (Homo sapiens (Human), UniProt O95150 1-251)
T3 sequence: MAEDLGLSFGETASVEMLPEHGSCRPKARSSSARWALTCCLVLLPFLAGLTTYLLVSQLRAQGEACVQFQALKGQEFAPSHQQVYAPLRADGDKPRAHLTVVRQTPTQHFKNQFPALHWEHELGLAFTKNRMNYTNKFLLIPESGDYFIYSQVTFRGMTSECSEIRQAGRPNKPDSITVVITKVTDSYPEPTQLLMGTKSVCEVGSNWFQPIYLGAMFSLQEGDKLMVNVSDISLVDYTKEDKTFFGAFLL

[5] = target: T1, human TL1A (in-house); remark: listed apart in the source
[6] = target: T1, human TL1A (in-house); remark: listed apart in the source

EC50, TL1A-driven phospho-NFkB in Hu Whole Blood(2.45 mg/ml), CD4+ T-cells, Donor A, ELN ref A010F-003 [1]: 2.64 nM | EC50, TL1A-driven phospho-NFkB in Hu Whole Blood(2.45 mg/ml), CD4+ T-cells, Donor A, ELN ref A010F-007 [1]: 0.77 nM | EC50, TL1A-driven phospho-NFkB in Hu Whole Blood(2.45 mg/ml), CD4+ T-cells, Donor B, ELN ref A010F-003 [1]: 2.94 nM | EC50, TL1A-driven phospho-NFkB in Hu Whole Blood(2.45 mg/ml), CD4+ T-cells, Donor B, ELN ref A010F-007 [1]: 3.24 nM | EC50, TL1A-driven phospho-NFkB in Hu Whole Blood(2.45 mg/ml), CD8+ T-cells, Donor A, no ELN ref printed in this row [1]: 0.85 nM | EC50, TL1A + IL-12 + IL-18 driven IFNg (Hu NKcells)(2.45 mg/ml), Donor A, ELN ref 97305-070 [2]: 0.16 nM | EC50, TL1A + IL-12 + IL-18 driven IFNg (Hu NKcells)(2.45 mg/ml), Donor A, ELN ref 97305-075 [2]: 0.147 nM | EC50, TL1A + IL-12 + IL-18 driven IFNg (Hu NKcells)(2.45 mg/ml), Donor B, ELN ref 97305-070 [2]: 0.253 nM | EC50, TL1A + IL-12 + IL-18 driven IFNg (Hu NKcells)(2.45 mg/ml), Donor B, ELN ref 97305-075 [2]: 0.162 nM | EC50, TL1A + IL-12 + IL-18 driven IFNg (Cyno PBMCs)(2.45 mg/ml), Donor A, ELN ref 97305-067 [3]: 0.122 nM | EC50, TL1A + IL-12 + IL-18 driven IFNg (Cyno PBMCs)(2.45 mg/ml), Donor A, ELN ref 97305-071 [3]: 0.154 nM | EC50, TL1A + IL-12 + IL-18 driven IFNg (Cyno PBMCs)(2.45 mg/ml), Donor A, ELN ref 97305-074 [3]: 0.105 nM | EC50, TL1A + IL-12 + IL-18 driven IFNg (Cyno PBMCs)(2.45 mg/ml), Donor A, ELN ref 97305-076 [3]: 0.097 nM | EC50, TL1A + IL-12 + IL-18 driven IFNg (Cyno PBMCs)(2.45 mg/ml), Donor B, ELN ref 97305-067 [3]: 0.164 nM | EC50, TL1A + IL-12 + IL-18 driven IFNg (Cyno PBMCs)(2.45 mg/ml), Donor B, ELN ref 97305-071 [3]: 0.133 nM | EC50, TL1A + IL-12 + IL-18 driven IFNg (Cyno PBMCs)(2.45 mg/ml), Donor B, ELN ref 97305-074 [3]: 0.129 nM | EC50, TL1A + IL-12 + IL-18 driven IFNg (Cyno PBMCs)(2.45 mg/ml), Donor B, ELN ref 97305-076 [3]: 0.093 nM | EC50, TL1A-expressing CHO cells + IL-12 + IL-18 driven IFNg (Hu PBMCs)(2.45 mg/ml), Donor A, ELN ref 97305-034 [4]: 0.234 nM | EC50, TL1A-expressing CHO cells + IL-12 + IL-18 driven IFNg (Hu PBMCs)(2.45 mg/ml), Donor B, ELN ref 97305-034 [4]: 0.214 nM | EC50, TL1A + IL-12 + IL-18 driven IFNg (Hu Tcells) (2.45 mg/ml), Donor A, ELN ref 97305-062 [5]: 0.18 nM | EC50, TL1A + IL-12 + IL-18 driven IFNg (Hu Tcells) (2.45 mg/ml), Donor A, ELN ref 97305-064 [5]: 0.235 nM | EC50, TL1A + IL-12 + IL-18 driven IFNg (Hu Tcells) (2.45 mg/ml), Donor A, ELN ref 97305-066 [5]: 0.331 nM | EC50, TL1A + IL-12 + IL-18 driven IFNg (Hu Tcells) (2.45 mg/ml), Donor A, ELN ref 97305-077 [5]: 0.241 nM | EC50, TL1A + IL-12 + IL-18 driven IFNg (Hu Tcells) (2.45 mg/ml), Donor A, ELN ref 97305-082 [5]: 0.034 nM | EC50, TL1A + IL-12 + IL-18 driven IFNg (Hu Tcells) (2.45 mg/ml), Donor A, ELN ref 99932-003797 [5]: 0.355 nM | EC50, TL1A + IL-12 + IL-18 driven IFNg (Hu Tcells) (2.45 mg/ml), Donor A, ELN ref 99932-004083 [5]: 0.393 nM | EC50, TL1A + IL-12 + IL-18 driven IFNg (Hu Tcells) (2.45 mg/ml), Donor A, ELN ref 99932-004084 [5]: 0.367 nM | EC50, TL1A + IL-12 + IL-18 driven IFNg (Hu Tcells) (2.45 mg/ml), Donor A, ELN ref 99932-004439 [5]: 0.185 nM | EC50, TL1A + IL-12 + IL-18 driven IFNg (Hu Tcells) (2.45 mg/ml), Donor A, ELN ref 99932-004774 [5]: 0.22 nM | EC50, TL1A + IL-12 + IL-18 driven IFNg (Hu Tcells) (2.45 mg/ml), Donor A, ELN ref 99932-004955 [5]: 0.172 nM | EC50, TL1A + IL-12 + IL-18 driven IFNg (Hu Tcells) (2.45 mg/ml), Donor B, ELN ref 97305-062 [5]: 0.259 nM | EC50, TL1A + IL-12 + IL-18 driven IFNg (Hu Tcells) (2.45 mg/ml), Donor B, ELN ref 97305-064 [5]: 0.199 nM | EC50, TL1A + IL-12 + IL-18 driven IFNg (Hu Tcells) (2.45 mg/ml), Donor B, ELN ref 97305-066 [5]: 0.347 nM | EC50, TL1A + IL-12 + IL-18 driven IFNg (Hu Tcells) (2.45 mg/ml), Donor B, ELN ref 97305-077 [5]: 0.258 nM | EC50, TL1A + IL-12 + IL-18 driven IFNg (Hu Tcells) (2.45 mg/ml), Donor B, ELN ref 97305-082 [5]: 0.039 nM | EC50, TL1A + IL-12 + IL-18 driven IFNg (Hu Tcells) (2.45 mg/ml), Donor B, ELN ref 99932-003797 [5]: 0.312 nM | EC50, TL1A + IL-12 + IL-18 driven IFNg (Hu Tcells) (2.45 mg/ml), Donor B, ELN ref 99932-004083 [5]: 0.311 nM | EC50, TL1A + IL-12 + IL-18 driven IFNg (Hu Tcells) (2.45 mg/ml), Donor B, ELN ref 99932-004084 [5]: 0.303 nM | EC50, TL1A + IL-12 + IL-18 driven IFNg (Hu Tcells) (2.45 mg/ml), Donor B, ELN ref 99932-004439 [5]: 0.194 nM | EC50, TL1A + IL-12 + IL-18 driven IFNg (Hu Tcells) (2.45 mg/ml), Donor B, ELN ref 99932-004774 [5]: 0.319 nM | EC50, TL1A + IL-12 + IL-18 driven IFNg (Hu Tcells) (2.45 mg/ml), Donor B, ELN ref 99932-004955 [5]: 0.211 nM | EC50, TL1A + IL-12 + IL-18 driven IFNg (Hu PBMCs) (5.9 mg/ml), Donor A, ELN ref 99932-005481 [6]: 0.295 nM | EC50, TL1A + IL-12 + IL-18 driven IFNg (Hu PBMCs) (5.9 mg/ml), Donor B, ELN ref 99932-005481 [6]: 0.241 nM
B1: TL1A antibody 10A4.F7.2E8 huIgG4 (antibody, V domains shown)
VH: QLQLQESGPGLVKPSETLSLTCTVSGGSISSRSYYWGWIRQPPGKGLEWIGSIYYNGRTYYNPSLKSRVTISVDTSKNQFSLKLSSVTAADTAVYYCAREDYGDYGAFDIWGQGTMVTVSS
VL: AIQLTQSPSSLSASVGDRVTITCRASQGISSALAWYQQKPGKAPKLLIYDASSLESGVPSRFSGSGSGTDFTLTISSLQPEDFATYYCQQFNSYPLTFGGGTKVEIKR
